{
  "source": "patent US8722637B2",
  "about": "“Methods and compositions of IG20 and DENN-SV splice variants” (The Board of Trustees of the University of Illinois, priority 2003, dated 2014)",
  "molecules": {"B1": {"name": "p35: baculovirus derived general caspase inhibitor (protein, UniProt P08160 1-299, looked up)", "Early 35 kDa protein": "MCVIFPVEIDVSQTIIRDCQVDKQTRELVYINKIMNTQLTKPVLMMFNISGPIRSVTRKNNNLRDRIKSKVDEQFDQLERDYSDQMDGFHDSIKYFKDEHYSVSCQNGSVLKSKFAKILKSHDYTDKKSIEAYEKYCLPKLVDERNDYYVAVCVLKPGFENGSNQVLSFEYNPIGNKVIVPFAHEINDTGLYEYDVVAYVDSVQFDGEQFEEFVQSLILPSSFKNSEKVLYYNEASKNKSMIYKALEFTTESSWGKSEKYNWKIFCNGFIYDKKSKVLYVKLHNVTSALNKNVILNTIK"}, "B2": {"name": "TRAIL: recombinant human TRAIL, TNF Related Apoptosis Inducing Ligand, purchased from Peprotech (protein, UniProt P50591 1-281, looked up)", "Tumor necrosis factor ligand …": "MAMMEVQGGPSLGQTCVLIVIFTVLLQSLCVAVTYVYFTNELKQMQDKYSKSGIACFLKEDDSYWDPNDEESMNSPCWQVKWQLRQLVRKMILRTSEETISTVQEKQQNISPLVRERGPQRVAAHITGTRGRSNTLSSPNSKNEKALGRKINSWESSRSGHSFLSNLHLRNGELVIHEKGFYYIYSQTYFRFQEEIKENTKNDKQMVQYIYKYTSYPDPILLMKSARNSCWSKDAEYGLYSIYQGGIFELKENDRIFVSVTNEHLIDMDHEASFFGAFLVG"}},
  "type_in_all_cases": "cell-based, human",
  "key": {"[1]": {"tested_on": "HeLa IG20 and control cells", "test": "Inhibition of TRAIL induced apoptosis by caspase inhibitors and DN-FADD (active caspase-3)", "details": "control and HeLa IG20 cells transfected with inhibitor; TRAIL 100 ng/mL 5 hours", "description": "FIG. 16. IG 20 enhanced apoptosis can be inhibited by caspase inhibitors and DN FADD HeLaIG20 and control cells (1×10^5 per well in a 6 well plate) were co-transfected with GFP-F vector along with either Crm A, p35 or DN-FADD in the ratio of 1:10. Twenty-four hours post transfection, TRAIL was added at a concentration of 100 ng/mL for 5 hours and both treated and untreated cells were stained with PE-conjugated anti-caspase3 antibodies and subjected to FACS analyses. The data were obtained from only GFP positive cells and represent 2 independent experiments carried out in duplicate.\nTransfection with dominant negative FADD, CrmA and p35 constructs—Control vector and IG20 stably transfected HeLa cells were plated at 5×10^5 overnight and the dominant negative FADD, Crm A and p35 constructs were co-transfected (2 μg each) with farnesylated EGFP at a ratio of 1:5. Equal numbers of wells were co-transfected with an appropriate control vector along with EGFP-F at the same ratio. The transfected cells were left untreated or treated with the TRAIL, or with TNF-α and cycloheximide, for 5 hours and cells were collected and stained for active caspase-3 (anti caspase-3 antibody) and subjected to FACS analysis to detect active caspase-3 staining in GFP-positive cells."}, "caspase-3": {"tested_on": "caspase-3", "test": "Caspase-3 activation in HeLa IG20 cells", "details": "5 hours; TRAIL, or TNF-α and cycloheximide", "description": "FIG. 15: IG20 Cells show increased specific activation of caspases upon TRAIL treatment A) Initiator caspases—Hela IG20 cells and control cells treated with TRAIL for 1H, were stained, with flourochrome-conjugated peptide inhibitors of specific active caspases as indicated, fixed and analyzed by FACS. B) Caspase-8 cleavage—IG20 HeLa cells and control cells were treated with TRAIL for either 1H or 3H, lysed and immunoblotted for the 10 kDa cleaved product of active caspase-8 using the 6B6 monoclonal antibody. […]\nCaspase activation—To assess the general activation of caspases, cells were stained with FITC tagged caspase inhibitor Val-Ala-Asp-flouromethyl ketone Promega, Madison, Wis.) for 10 minutes at 37° C., washed and analyzed by FACS for percentage of FITC positive cells. The initiator caspases were analyzed by using carboxyflourescein labeled peptide flouromethlyketone inhibitors (FAM-peptide-FMK) directed against active caspase-8, 9 and 10 (APOLOGIX caspase detection kit, Cell Tech Inc., Minneapolis, Minn.). […] Cells were collected, washed once, resuspended in Perm/wash buffer and analyzed by FACS for PE positive population. […]"}, "HeLa IG20 cells": {"tested_on": "HeLa IG20 cells", "test": "TRAIL or TNF-α/cycloheximide induced apoptosis in HeLa IG20 cells (caspase activation, TMRE, Hoechst)", "details": "5 hours; TRAIL 100 ng/mL, or 10 ng/mL TNF-α and 10 μg/mL cycloheximide", "description": "FIG. 13: IG20 transfected HeLa cells show increased apoptosis upon TRAIL treatment. HeLa-IG20 and control cells were treated for 5 hours with TRAIL at 100 ng/mL or with 10 ng/mL of TNF-α and 10 μg/mL of Cycloheximide and analyzed for apoptosis. A) Activation of caspases—cells were incubated for 10 minutes with FITC labeled general caspase inhibitor VAD FMK (Val-Ala-Asp-flouromethyl ketone) and analyzed by FACS. Numbers in the histogram indicate percentage of FITC positive cells. B) Mitochondrial Depolarization—Loss of the dye TMRE is indicative of mitochondrial depolarization and the numbers shown in the FACS histograms represent percentage of TMRE negative cells. All the above experiments were done in triplicates and results shown are representative histograms. […] D) Percentage of cells with condensed chromatin was calculated by counting 3 fields containing at least 200 cells each and error bars indicate mean±S.D.\nMitochondrial depolarization and chromatin condensation—2×10^5 HeLa IG20 and Vector control cells were plated into a 12-well culture dish and allowed to grow for 48 hours. […] Cells were assessed for loss of mitochondrial membrane potential by staining with tetramethylrhodamine ethyl ester (100 nm, Molecular Probes, Eugene, Oreg.) for 10 minutes, washed once with ice-cold PBS, collected and subjected to FACS analysis. […]"}, "PA-1 cells": {"tested_on": "PA-1 cells", "test": "TRAIL-induced apoptosis in PA-1 cells (active caspase 3)", "details": "TRAIL three hours", "description": "FIG. 12: Effects of IG20 on PA-1 Cell Phenotypes. (A) Growth Rates. PA-1 and PA-1-IG20 cells were plated as described in Materials and Methods. Cells were then harvested and counted on the indicated days. Data are presented as mean+standard deviation of three plates for each sample. P values were <0.05 for all test groups. (B) TNFα-Induced Apoptosis. Cells were either untreated or treated with TNFα and cyclohexamide (CHX) for three hours, as described in Materials and Methods and then tested for percentages of cells with active caspase 3. (C) TRAIL-Induced Apoptosis. Cells were either untreated or treated with TRAIL for three hours and then tested for percentages of cells with active caspase 3, in the presence or absence of Z-VAD, an inhibitor of caspase activation. (D) Response to […] and TRAIL Treatment. PA-1-IG20 cells exposed to 6 and 12Gy of […] were plated as described in Materials and Methods. Twenty-four hours later, cells were either untreated or treated with TRAIL for 3 hours. All cells were then harvested and tested for levels of active caspase 3. (E) TNFα- and TRAIL-Induced NFκB Activation. Cells transfected with the NFκB-luciferase reporter were serum-deprived and then subjected to mock, TNFα, TRAIL or zVAD treatments for 5 hours. Cells were then lysed and tested for levels of luciferase activity. […]"}},
  "data": [
    {"molecule": "B1", "values": [
      {"measurement": "Effect on TRAIL induced apoptosis (active caspase-3)", "setting": "[1]", "value": "abrogated TRAIL induced apoptosis"}
    ]},
    {"molecule": "B2", "values": [
      {"measurement": "Relative increase in caspase-3 activation, HeLa IG20 relative to control cells", "setting": "caspase-3", "value": "five fold increase"},
      {"measurement": "Increase in cells undergoing apoptosis, HeLa IG20 versus control cells", "setting": "HeLa IG20 cells", "value": "3-3.5 fold"},
      {"measurement": "TRAIL-induced apoptosis", "setting": "PA-1 cells; PA-1-IG20 cells", "value": "highly susceptible to TRAIL-induced apoptosis"},
      {"measurement": "TRAIL-induced apoptosis", "setting": "PA-1 cells; PA-1 cells", "value": "almost completely resistant"}
    ]}
  ]
}
